# Results from the Immune Epitope Database (IEDB).
# pIC50, pKd: −log10 of the molar value.
# Experiments:
# [1] = biological target: HLA-A*02:01; assay: IEDB peptide-MHC binding, purified MHC/competitive/fluorescence; ≥ and ≤ were set here for values at or beyond the usual limits of such assays
# [2] = biological target: HLA-B*58:01; assay: IEDB peptide-MHC binding, purified MHC/direct/fluorescence; filed as Kd, often an IC50 or EC50 that approximates it; ≥ and ≤ were set here for values at or beyond the usual limits of such assays
# [3] = biological target: HLA-A*11:01; assay: as above; settings: source organism: Yellow fever virus
# [4] = biological target: HLA-B*07:02; assay: as above; settings: source organism: Homo sapiens
# [5] = biological target: HLA-A*69:01; assay: as above
# [6] = biological target: HLA-A*30:01; assay: IEDB peptide-MHC binding, purified MHC/competitive/radioactivity; filed as Kd, often an IC50 or EC50 that approximates it; ≥ and ≤ were set here for values at or beyond the usual limits of such assays
# [7] = biological target: HLA-A*03:01; assay: as above; settings: source organism: Dengue virus 1 Brazil/97-11/1997
# [8] = biological target: HLA-A*11:01; assay: as above; settings: source organism: Dengue virus 1 Brazil/97-11/1997
# [9] = biological target: HLA-A*02:01; assay: IEDB peptide-MHC binding, purified MHC/competitive/fluorescence; filed as Kd, often an IC50 or EC50 that approximates it; ≥ and ≤ were set here for values at or beyond the usual limits of such assays
# [10] = biological target: HLA-A*24:02; assay: IEDB peptide-MHC binding, purified MHC/competitive/radioactivity; filed as Kd, often an IC50 or EC50 that approximates it; ≥ and ≤ were set here for values at or beyond the usual limits of such assays; settings: source organism: Dengue virus 1 Nauru/West Pac/1974
# [11] = biological target: HLA-B*15:01; assay: IEDB peptide-MHC binding, purified MHC/direct/fluorescence; filed as Kd, often an IC50 or EC50 that approximates it; ≥ and ≤ were set here for values at or beyond the usual limits of such assays; settings: source organism: Homo sapiens
# [12] = biological target: HLA-A*02:02; assay: IEDB peptide-MHC binding, purified MHC/competitive/radioactivity; filed as Kd, often an IC50 or EC50 that approximates it; ≥ and ≤ were set here for values at or beyond the usual limits of such assays; settings: source organism: Vaccinia virus WR
# [13] = biological target: HLA-A*02:03; assay: as above; settings: source organism: Vaccinia virus WR
# [14] = biological target: HLA-A*02:06; assay: as above; settings: source organism: Vaccinia virus WR
# [15] = biological target: HLA-A*02:01; assay: IEDB peptide-MHC binding, purified MHC/direct/fluorescence; filed as Kd, often an IC50 or EC50 that approximates it; ≥ and ≤ were set here for values at or beyond the usual limits of such assays
# [16] = biological target: HLA-A*26:01; assay: as above; settings: source organism: Mycobacterium tuberculosis
# [17] = biological target: HLA-A*26:01; assay: IEDB peptide-MHC binding, purified MHC/competitive/radioactivity; filed as Kd, often an IC50 or EC50 that approximates it; ≥ and ≤ were set here for values at or beyond the usual limits of such assays; settings: source organism: Dengue virus 1 Brazil/97-11/1997
# [18] = source organism: Vaccinia virus WR
# [19] = source organism: Zaire ebolavirus
# [20] = source organism: West Nile virus
# [21] = source organism: Sudan ebolavirus
# [22] = source organism: Mycobacterium tuberculosis
# [23] = source organism: Giardia lamblia ATCC 50803
Sequence,pKd [12],pKd [13],pKd [14],also measured
RLDGTTLEV,–,–,–,pIC50 ([1]; source organism: Mycobacterium leprae): 7.46
RLKVFLPNP,–,–,–,pIC50 ([1]; source organism: Variola virus): 5.03
RLVDSIGSW,–,–,–,pKd ([2]; source organism: Influenza A virus (A/swine/IDT/Bakum1832/2000(H1N2))): 6.89
RMGERQLQK,–,–,–,pKd [3]: 7.53
RPASAGAML,–,–,–,pKd [4]: 7.47; pKd ([5]; source organism: Homo sapiens): 5.08
RSLKAFFSW,–,–,–,pKd ([2]; source organism: Mammarenavirus machupoense): 7.53
RTHTALIFL,–,–,–,"pKd [6, 18]: 9.15"
RTRDLFIAL,–,–,–,"pKd [6, 18]: 9.97"
RYRCSFAVA,–,–,–,"pKd [6, 18]: 11.42"
SAMVQVHSQ,–,–,–,"pIC50 [1, 19]: ≤ 3.22"
SILLSSLLK,–,–,–,pKd [7]: 8.10; pKd ([6]; source organism: Dengue virus 1 Brazil/97-11/1997): 5.67; pKd [8]: 7.71
SLARGFPFV,–,–,–,"pKd [9, 20]: 8.91; pKd [5, 20]: ≥ 9.00"
SNGLITSTV,–,–,–,"pIC50 [1, 21]: 4.22"
SYTQVCDHRL,–,–,–,pKd [10]: 6.03
TGVGKTSQV,–,–,–,pIC50 ([1]; source organism: Variola virus): 4.44
TLFKIDNNT,–,–,–,"pIC50 [1, 21]: 4.73"
TSSDPGTNT,–,–,–,"pIC50 [1, 19]: ≤ 3.60"
TVVPLMAFL,–,–,–,pKd ([9]; source organism: Bacillus cereus G9241): 7.31
VGYVDDTQF,–,–,–,pKd [4]: 5.21; pKd ([2]; source organism: Homo sapiens): 6.68; pKd [11]: 6.24
VIVPDIKLDA,≤ 4.47,≤ 4.67,6.05,–
VLPPEINSL,–,–,–,"pKd [15, 22]: 7.15"

Sequence,pKd [12],pKd [13],pKd [14],also measured
VLQQVSNGV,–,–,–,"pKd [5, 22]: ≤ 4.70"
VLTSVDIET,6.42,4.95,7.86,–
VMPEKRNVVV,5.45,6.52,≤ 4.56,–
VSTAVAALF,–,–,–,pKd ([2]; source organism: Mycobacterium tuberculosis F11): 7.49
VTLNRIKIA,4.88,6.39,6.20,–
VTPEYIKDL,4.98,≤ 4.11,5.75,–
VTSPLTGNNT,5.84,5.60,5.29,–
VTTLGLPFY,–,–,–,pKd [16]: 4.89
VTYNIKPVIV,5.31,6.94,6.45,–
WLKDSAIMV,6.72,7.55,5.64,–
WVMDTLNGIM,5.88,6.71,6.89,–
YASLTTIGTI,5.20,6.40,7.08,–
YFLESNFFI,–,–,–,"pKd [15, 23]: 9.22; pKd [5, 23]: 8.66"
YGLVSKFMS,–,–,–,"pIC50 [1, 18]: 4.59"
YLGIFKNNDV,7.83,7.77,6.55,–
YLPEVISTIA,7.96,9.02,7.75,–
YLSDSDNIKI,7.79,6.96,6.04,–
YQNEVTPEYI,8.56,9.68,8.59,–
YVGDLCGSV,–,–,–,pIC50 ([1]; source organism: Hepatitis C virus genotype 1): ≤ 4.30
YVKFIYFIK,–,–,–,"pKd [6, 18]: 7.22"
YVVIGLLFM,–,–,–,pKd [17]: 4.90
